Marks after values point to notes of the source that are not given here.
Assays:
[1] = biological target: GST-GSK3 fusion protein (Cell Signaling Technology)

B1: full length PKNbeta KE588 mutant (protein)
chain: MEEGAPRQPGPSQWPPEDEKEVIRRAIQKELKIKEGVENLRRVATDRRHLGHVQQLLRSSNRRLEQLHGELRELHARILLPGPGPGPAEPVASGPRPWAEQLRARHLEALRRQLHVELKVKQGAENMTHTCASGTPKERKLLAAAQQMLRDSQLKVALLRMKISSLEASGSPEPGPELLAEELQHRLHVEAAVAEGAKNVVKLLSSRRTQDRKALAEAQAQLQESSQKLDLLRLALEQLLEQLPPAHPLRSRVTRELRAAVPGYPQPSGTPVKPTALTGTLQVRLLGCEQLLTAVPGRSPAAALASSPSEGWLRTKAKHQRGRGELASEVLAVLKVDNRVVGQTGWGQVAEQSWDQTFVIPLERARELEIGVHWRDWRQLCGVAFLRLEDFLDNACHQLSLSLVPQGLLFAQVTFCDPVIERRPRLQRQERIFSKRRGQDFLRRSQMNLGMAAWGRLVMNLLPPCSSPSTISPPKGCPRTPTTLREASDPATPSNFLPKKTPLGEEMTPPPKPPRLYLPQEPTSEETPRTKRPHMEPRTRRGPSPPASPTRKPPRLQDFRCLAVLGRGHFGKVLLVQFKGTGKYYAIEALKKQEVLSRDEIESLYCEKRILEAVGCTGHPFLLSLLVCFQTSSHARFVTEFVPGGDLMMQIHEDVFPEPQARFYVACVVLGLQFLHEKKIIYRDLKLDNLLLDAQGFLKIADFGLCKEGIGFGDRTSTFCGTPEFLAPEVLTQEAYTQAVDWWALGVLLYEMLVGECPFPGDTEEEVFDCIVNMDAPYPGFLSVQGLEFIQKLLQKCPEKRLGAGEQDAEEIKVQPFFRTTNWQALLARTIQPPFVPTLCGPADLRYFEGEFTGLPPALTPPAPHSLLTARQQAAFRDFDFVSERFLEP
non-radioactive in vitro kinase assay (FIG. 11A) [1]: no (FIG. 11A) or background activity of unspecific kinases (FIG. 11B) were detected with the full length KE and full length TA mutatant proteinss | radioactive in vitro kinase assay, 32P incorporation by autoradiography (FIG. 11B) (myelin basic protein): background activity of unspecific kinases (FIG. 11B)

B2: full length PKNbeta with the TA mutation at amino acid 718 (protein)
chain: MEEGAPRQPGPSQWPPEDEKEVIRRAIQKELKIKEGVENLRRVATDRRHLGHVQQLLRSSNRRLEQLHGELRELHARILLPGPGPGPAEPVASGPRPWAEQLRARHLEALRRQLHVELKVKQGAENMTHTCASGTPKERKLLAAAQQMLRDSQLKVALLRMKISSLEASGSPEPGPELLAEELQHRLHVEAAVAEGAKNVVKLLSSRRTQDRKALAEAQAQLQESSQKLDLLRLALEQLLEQLPPAHPLRSRVTRELRAAVPGYPQPSGTPVKPTALTGTLQVRLLGCEQLLTAVPGRSPAAALASSPSEGWLRTKAKHQRGRGELASEVLAVLKVDNRVVGQTGWGQVAEQSWDQTFVIPLERARELEIGVHWRDWRQLCGVAFLRLEDFLDNACHQLSLSLVPQGLLFAQVTFCDPVIERRPRLQRQERIFSKRRGQDFLRRSQMNLGMAAWGRLVMNLLPPCSSPSTISPPKGCPRTPTTLREASDPATPSNFLPKKTPLGEEMTPPPKPPRLYLPQEPTSEETPRTKRPHMEPRTRRGPSPPASPTRKPPRLQDFRCLAVLGRGHFGKVLLVQFKGTGKYYAIKALKKQEVLSRDEIESLYCEKRILEAVGCTGHPFLLSLLVCFQTSSHARFVTEFVPGGDLMMQIHEDVFPEPQARFYVACVVLGLQFLHEKKIIYRDLKLDNLLLDAQGFLKIADFGLCKEGIGFGDRTSAFCGTPEFLAPEVLTQEAYTQAVDWWALGVLLYEMLVGECPFPGDTEEEVFDCIVNMDAPYPGFLSVQGLEFIQKLLQKCPEKRLGAGEQDAEEIKVQPFFRTTNWQALLARTIQPPFVPTLCGPADLRYFEGEFTGLPPALTPPAPHSLLTARQQAAFRDFDFVSERFLEP
non-radioactive in vitro kinase assay (FIG. 11A) [1]: no (FIG. 11A) or background activity of unspecific kinases (FIG. 11B) were detected with the full length KE and full length TA mutatant proteinss | radioactive in vitro kinase assay, 32P incorporation by autoradiography (FIG. 11B) (myelin basic protein): background activity of unspecific kinases (FIG. 11B)

B3: full length wildtype PKNbeta molecule (889 amino acids) (protein)
chain: MEEGAPRQPGPSQWPPEDEKEVIRRAIQKELKIKEGVENLRRVATDRRHLGHVQQLLRSSNRRLEQLHGELRELHARILLPGPGPGPAEPVASGPRPWAEQLRARHLEALRRQLHVELKVKQGAENMTHTCASGTPKERKLLAAAQQMLRDSQLKVALLRMKISSLEASGSPEPGPELLAEELQHRLHVEAAVAEGAKNVVKLLSSRRTQDRKALAEAQAQLQESSQKLDLLRLALEQLLEQLPPAHPLRSRVTRELRAAVPGYPQPSGTPVKPTALTGTLQVRLLGCEQLLTAVPGRSPAAALASSPSEGWLRTKAKHQRGRGELASEVLAVLKVDNRVVGQTGWGQVAEQSWDQTFVIPLERARELEIGVHWRDWRQLCGVAFLRLEDFLDNACHQLSLSLVPQGLLFAQVTFCDPVIERRPRLQRQERIFSKRRGQDFLRRSQMNLGMAAWGRLVMNLLPPCSSPSTISPPKGCPRTPTTLREASDPATPSNFLPKKTPLGEEMTPPPKPPRLYLPQEPTSEETPRTKRPHMEPRTRRGPSPPASPTRKPPRLQDFRCLAVLGRGHFGKVLLVQFKGTGKYYAIKALKKQEVLSRDEIESLYCEKRILEAVGCTGHPFLLSLLVCFQTSSHARFVTEFVPGGDLMMQIHEDVFPEPQARFYVACVVLGLQFLHEKKIIYRDLKLDNLLLDAQGFLKIADFGLCKEGIGFGDRTSTFCGTPEFLAPEVLTQEAYTQAVDWWALGVLLYEMLVGECPFPGDTEEEVFDCIVNMDAPYPGFLSVQGLEFIQKLLQKCPEKRLGAGEQDAEEIKVQPFFRTTNWQALLARTIQPPFVPTLCGPADLRYFEGEFTGLPPALTPPAPHSLLTARQQAAFRDFDFVSERFLEP
non-radioactive in vitro kinase assay, phosphorylated substrate detected by Western blot [1]: Only the full length wildtype protein kinase N beta or the kinase domain as defined in example 9 were suitable to phosphorylate the substrate | Activity (phosphorylation of MPB) (myelin basic protein): ++* | radioactive in vitro kinase assay, 32P incorporation by autoradiography (FIG. 11B) (myelin basic protein): the full length wildtype protein kinase N beta as well as the kinase domain show activity

B4: PKNbeta deltaN comprising amino acids 288-889 (protein)
chain: CEQLLTAVPGRSPAAALASSPSEGWLRTKAKHQRGRGELASEVLAVLKVDNRVVGQTGWGQVAEQSWDQTFVIPLERARELEIGVHWRDWRQLCGVAFLRLEDFLDNACHQLSLSLVPQGLLFAQVTFCDPVIERRPRLQRQERIFSKRRGQDFLRRSQMNLGMAAWGRLVMNLLPPCSSPSTISPPKGCPRTPTTLREASDPATPSNFLPKKTPLGEEMTPPPKPPRLYLPQEPTSEETPRTKRPHMEPRTRRGPSPPASPTRKPPRLQDFRCLAVLGRGHFGKVLLVQFKGTGKYYAIKALKKQEVLSRDEIESLYCEKRILEAVGCTGHPFLLSLLVCFQTSSHARFVTEFVPGGDLMMQIHEDVFPEPQARFYVACVVLGLQFLHEKKIIYRDLKLDNLLLDAQGFLKIADFGLCKEGIGFGDRTSTFCGTPEFLAPEVLTQEAYTQAVDWWALGVLLYEMLVGECPFPGDTEEEVFDCIVNMDAPYPGFLSVQGLEFIQKLLQKCPEKRLGAGEQDAEEIKVQPFFRTTNWQALLARTIQPPFVPTLCGPADLRYFEGEFTGLPPALTPPAPHSLLTARQQAAFRDFDFVSERFLEP
Activity (phosphorylation of MPB) (myelin basic protein): -*

Reference: patent US20040106569
